Assay results: patent US20100285022A1

Target: F protein on live RSV virus (strain not stated) (respiratory syncytial virus)
Experiment: cell-based or functional assay

## Synagis® (palivizumab) (antibody)
  IC50, plaque neutralization assay on HEp2 cells with rabbit complement: 0.3 µg/mL
  affinity corresponding to the IC50 of the plaque neutralization assay: 2 nM
